Assays:
[1] = molecular target: SARS-CoV-2 S protein (entire S ectodomain) as used with m31A7 (SARS-CoV-2, UniProt P0DTC2 14-1213); assay: ELISA
[2] = molecular target: SARS-CoV-2 S protein S1 (SARS-CoV-2); assay: ELISA
[3] = molecular target: SARS-CoV-2 WT S protein expressed on HEK293T cells (SARS-CoV-2, UniProt P0DTC2); assay: FACS

B1: monoclonal antibody m31A7 (IgG) (antibody, V domains shown)
VH: EVQLQQSGPEMVKPGASVKISCKTSGYTFTEYTIYWVKQSHGKSLEWLGGINPNIGDTTYNQKFKGKATLTVDTSSSTAYMELRSLTSEDSAVYYCAREVYNYSFAYWGQGTLVTVSA
VL: DIVMSQSPSSLAVSVGEKVTMSCKSSQSLLYSSNQKNYLAWYQQKLGQTPKLLIYWASSRESGVPDRFTGSGSGTDFTLTISSVRAEDLAVYYCQQYYRYPLTFGVGTKLELK
- EC50 [1]: 0.0312 nM
- EC50 [2]: 0.0235 nM
- EC50 [3]: 0.0685 nM

— article PMC9802656 (2022)
